Assay: yeast display, Sf9 membrane polyspecificity reagent, FACS + sequencing; frameworks hold sequencing errors
How it was run: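 Using colony PCR, genes from sorted yeast display clones were amplified, then sequenced on MiSeq at 2 × 250 and filtered by CDR length. The clones had been stained with 10% biotinylated, detergent-solubilized Sf9 membrane reagent for 1 hour at 4 °C and sorted by FACS into low and high (top ~1%) gates on anti-HA and streptavidin fluorescence. Polyreactivity labels come from the gate of origin.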

Q: With “QVQLVESGGGLDQARGSLRLSCAASGGIFDHNAMGWYRQAPGKEREFVAAITWSGGGTYYADSVKGRFTISRDNAKNTVYLQMNSLKPEDTAVYYCAATVYGIYYYGKDRYDYWGQGTQVTVSS” as the sequence, how does the “polyreactivity (PSR sort gate)” value read?
A: Its value is “low polyreactivity”.

Q: With “QVQLVESGGGLDQARGSLRLSCAASGRIFRSYVMGWYRQAPWKERELVAAISWRGGSTYADSVKGRFTISRDNAKNTVYLQMNSLKPEDTAVYYCAARGPYTYRRYCYWGQGTQVTVSS” as the sequence, how does the “polyreactivity (PSR sort gate)” value read?
A: The value was “high polyreactivity”.

Q: With “QVQLVESGGGLDQARGSLRLSCAASGSTFYLYAMGWYRQAPGKERELVAAISSGGRTYYADSVKGRFTISRDNAKNTVYLQMNSLKPEDTAVYYCAKVYRRRYYWGQGTQVTVSS” as the sequence, how does the “polyreactivity (PSR sort gate)” value read?
A: Its value is “high polyreactivity”.

Q: With “QVQLVESGGGLDQARGSLRLSCAASGTTIGGNAMGWYRQAPGKERELVAAIDSGGSTYADSVKGRFTISRDNAKKTVYVQMNSLKPEDTAVYYCAAVWEFVHFWSFDYWGQGTQVTVSS” as the sequence, how does the “polyreactivity (PSR sort gate)” value read?
A: Its value is “low polyreactivity”.

Q: Which “polyreactivity (PSR sort gate)” value does the source give for “QVQLVESGGGLDQARGSLRLSCPASGFIFTDYAMGWYRQAPGKERELVAGISGSGGRTYYADSVKGRFTISRDNAKNTVYLQMNSLKPEDTAVYYCAARGVPWLWYFRGMYWGQGTQVTVSS” here?
A: Its value is “high polyreactivity”.

Q: With “QVQLVESGGGLDQSGGSLRLTCAASGFTFVINDMGRYIHAPGKEMEWVADITSGGDTYYADSVKGRFTISRDNAKNTVYLQSNRLKPEDTAVYYCAADIYPDWIYLLYGYWGQGTQVNVSS” as the sequence, how does the “polyreactivity (PSR sort gate)” value read?
A: The value was “low polyreactivity”.

Q: With “QVQLVESGGGLEQAGGSLRLTWAASGRIFYVYAMGLYIQAPGKERELVAAITWRGGTTYYADSVKGRFTISRDNAQNTVYLEMNSLKPEDTAVYYCNAKYFRSYYSIEYDYWGQGTQVTVSS” as the sequence, how does the “polyreactivity (PSR sort gate)” value read?
A: Its value is “low polyreactivity”.

Q: With “QVQLVESGGGLFHAGGSLRLSCAASGSTFSRNAMGWYIPAPGKEREFVAAISWSGSSTYYADSVKGRFTISRDNAKNTVYLQMNSLKPEDTAVYYCAARSYYDGFYYWGQGTQVTVSS” as the sequence, how does the “polyreactivity (PSR sort gate)” value read?
A: The value was “high polyreactivity”.

Q: Which “polyreactivity (PSR sort gate)” value does the source give for “QVQLVESGGGLFKAGGSLRLRCAPSGSIFDYNTMAWYRQAPGKERQFVAAISSARGGTSYADSVKGRFTISRDNAKNTVYLQMNSLKPEDTAVYYCAALIILTPYQRQYWKYGAYFYWGQGTQVTVSS” here?
A: Its value is “high polyreactivity”.

Q: For “QVQLVESGGGLFKAGGSLRLSCAASGRIFEKYAMGWYRQAPGKERELVAAISYSGGSTYYADSVKGRFTISRDNAKNTVYFQMNCLKPEDTAVYYCARYSRTQAYDYWGQGTQVTVSS”, which “polyreactivity (PSR sort gate)” value is on record?
A: The value was “high polyreactivity”.

Q: Which “polyreactivity (PSR sort gate)” value does the source give for “QVQLVESGGGLFQAGGILRLSCAASGRTFHRNAMGWYRLAPGKERELVAAITGDGRTNYADSVKGRFTISRDNAKNTVYLQMNSLKPEDTAVYYCAARFSYRSYDYWGQGSQVTVSS” here?
A: The value was “low polyreactivity”.

Q: For “QVQLVESGGGLFQAGGRLRLSCAASGRNCNAYTMGWYRQAPGKERELVAAISRRGGSTYYADSVKGRFTISRDNAQNTVSLQMNSLNPEDTAVYYCATKSQYDYDYWGQGTQVTVSS”, which “polyreactivity (PSR sort gate)” value is on record?
A: The value was “high polyreactivity”.

Q: Which “polyreactivity (PSR sort gate)” value does the source give for “QVQLVESGGGLFQAGGRLRLSCAPSGGTLPKYAMAWYRHAPGKERELVARITWNDGTTYYADSVKGRFTISRDNAKNTVYLQMNSLIPEDTAVYYCNTDRAYWFLYPFSYYYWGQGTQVTVSS” here?
A: Its value is “low polyreactivity”.

Q: For “QVQLVESGGGLFQAGGSLRISCAASGGTFFRYAMGWYRQAPGKERELVAAITWSSGSTYYADSVKGRFTISRDNAKNTGYLQMNSLKPEDTAVYYYDYYTYGDYWGQGTEVTVSS”, which “polyreactivity (PSR sort gate)” value is on record?
A: Its value is “low polyreactivity”.

Q: For “QVQLVESGGGLFQAGGSLRLICAASGRTYYAYARGWYRQAPGKERELVAAITSGGSTYYADSVKGRFTISRDNAKNTVYLQMNSLKPEDTAVYYCNAGYYQWPFSGYDYWGQGTQVTVSS”, which “polyreactivity (PSR sort gate)” value is on record?
A: The value was “low polyreactivity”.

Q: Which “polyreactivity (PSR sort gate)” value does the source give for “QVQLVESGGGLFQAGGSLRLICADSGRTFGYNAMGWYRKATGKDRELVAAINWSGASTYYADSVKGRFTISRDNAKNTVYLQMNCLKPEDTAVYYCAAAYSYIYGFDYWGQGTQVTVSS” here?
A: Its value is “low polyreactivity”.

Q: With “QVQLVESGGGLFQAGGSLRLRCAATGLIFDLYAMGWYRQAPGKERELVAVISYDGGSTYYADSVKGRFTISRDNAKNTVYLQMNSLKPEETAVYYCNTFDGLVSPSDLYDYWGQGTQVTVSS” as the sequence, how does the “polyreactivity (PSR sort gate)” value read?
A: Its value is “low polyreactivity”.

Q: Which “polyreactivity (PSR sort gate)” value does the source give for “QVQLVESGGGLFQAGGSLRLSCAASGFIFRDNAMGWYRQAPGKERELVAAISWSSDSTYYADSVKGRFTISRDNEKNTVYLQMNSLNPEDSAVYYCAGKGQRGYWWGFDYWGQGTQVTVSS” here?
A: The value was “low polyreactivity”.

Q: For “QVQLVESGGGLFQAGGSLRLSCAASGFIFRYYAMGWYRQAPGKERELVAAITRGGSTYYADSVKGRFTISRDNAKNTVYLQMNSLKPEDTAVYDCAARLYTQYYYWGQCTQVTVSS”, which “polyreactivity (PSR sort gate)” value is on record?
A: The value was “high polyreactivity”.

Q: For “QVQLVESGGGLFQAGGSLRLSCAASGFIFYPNAMGWYRQAPGKEREWVAAITDSGGSTYYADSVKGRFTISRDNAKNTVYLQMNSLKPEDTAVYYCNADYGGYYWTWGYDYWGQGTQVTVSS”, which “polyreactivity (PSR sort gate)” value is on record?
A: The value was “low polyreactivity”.

Q: For “QVQLVESGGGLFQAGGSLRLSCAASGFTFFIYAMGGSRQAPGKEREFVAAITGSGGSTYYADSVKGRFTISRDNAKNTVYLQLNSLKPEDTAVYYCNKLSYGRSGYWGQGTQVTVSS”, which “polyreactivity (PSR sort gate)” value is on record?
A: The value was “high polyreactivity”.

Q: With “QVQLVESGGGLFQAGGSLRLSCAASGFTFGYYAMGWYRQAPGKERELVASISITAGSTYYADSVKGRFTISRDNAKNTVYLQMNSLKPEDTAVYYCAAKRRTRQSYYTEYYWGQGTQVTVSS” as the sequence, how does the “polyreactivity (PSR sort gate)” value read?
A: Its value is “high polyreactivity”.

Q: Which “polyreactivity (PSR sort gate)” value does the source give for “QVQLVESGGGLFQAGGSLRLSCAASGFTFRTYAMGWYRQAPGKERELVATIRRAGSTNYADSVKGRFTISRDNAKNTVYLQMNRLKPEDTAVYYCNAGFSHRSDNGIDGYYWGPGTQVTVSS” here?
A: Its value is “high polyreactivity”.

Q: With “QVQLVESGGGLFQAGGSLRLSCAASGGIFPFYAMGWYRQAPGKERELVAAISSGGSTNYADSVKGRFTISRDNAKNTVYLQMNSLKPEDTAVYYWNTVFQLGEGGSYGYDYWGQGTQVTVSS” as the sequence, how does the “polyreactivity (PSR sort gate)” value read?
A: Its value is “low polyreactivity”.

Q: Which “polyreactivity (PSR sort gate)” value does the source give for “QVQLVESGGGLFQAGGSLRLSCAASGITFAYYAMAWYRQAPGKERELVARISRRGGSTYYADSVKGRFTISRDNAKNTVYLQMNSLKPEDTAVYYCAARVVVPKPYVDGDYWGQGTQVTVSS” here?
A: The value was “high polyreactivity”.

Q: With “QVQLVESGGGLFQAGGSLRLSCAASGITFSKNSMGWYRQAPGQERELVAAITRRSVSKYYADSVKGRFTISRDNENNNLYLQMNSLKPEYTAVYYCAASYSSKHGYWGQGTQVTVSS” as the sequence, how does the “polyreactivity (PSR sort gate)” value read?
A: Its value is “high polyreactivity”.

Q: Which “polyreactivity (PSR sort gate)” value does the source give for “QVQLVESGGGLFQAGGSLRLSCAASGLTFNRYAMGWSRQAPGKERELVAAIDYSGGRTYYADSVKGRFTISRDYAKNTVYLQMNSLKPEDTAVFYCNALTRSVSRLLYDFWGQGSQVTVSS” here?
A: The value was “high polyreactivity”.

Q: With “QVQLVESGGGLFQAGGSLRLSCAASGRIFAYNTMGWYRQAPAKERELVAVITSGGSTNYADSVKGRFTISRDNAKNTVYLQLNSLKAEDTAVYYCAKRPYGRSGGSRYDYWGQGTQVTVSS” as the sequence, how does the “polyreactivity (PSR sort gate)” value read?
A: Its value is “high polyreactivity”.

Q: Which “polyreactivity (PSR sort gate)” value does the source give for “QVQLVESGGGLFQAGGSLRLSCAASGRIFPWNTMGWYRQAPGKERELVAGINNGDRTYYADSVKGRFTISRVNAKNTVYLQMNSLKPEDTAVYYCAVDTWYFLFQYGYYQEGDYWGQGTQVTVSS” here?
A: Its value is “low polyreactivity”.

Q: With “QVQLVESGGGLFQAGGSLRLSCAASGRIFPYKVMGWYRQAPGKERELVAAISSGGTTDYADSVKGRFTISRDNAKNTVYLQMNSLKPEDTAVYYCASTYVYWTWGYDYWGQGTQVTVSS” as the sequence, how does the “polyreactivity (PSR sort gate)” value read?
A: The value was “low polyreactivity”.

Q: For “QVQLVESGGGLFQAGGSLRLSCAASGRIFYYNTMGWYRQAPGIERELVAGISTRGGRTYYADSVKGRFTISRDNAKNTVYLQMNSLKPEDTAVYYCAKQYGSYGRYYKYYYWGQGTQLTVSS”, which “polyreactivity (PSR sort gate)” value is on record?
A: Its value is “high polyreactivity”.

Q: With “QVQLVESGGGLFQAGGSLRLSCAASGRTFKNNAMGWYRQAPGKERELVAAISSNGGSTYYADSVKGRFTISRDNAKNTVYLQMNSLKPEDTAVYYCAADRTIVEYYYWGQGTQVTVSS” as the sequence, how does the “polyreactivity (PSR sort gate)” value read?
A: Its value is “high polyreactivity”.

Q: Which “polyreactivity (PSR sort gate)” value does the source give for “QVQLVESGGGLFQAGGSLRLSCAASGSIFERYTMGWYRQSPGKERELVAAISRSGGRTYYADSVKGRFTISRDNAKNTVYLQMNSLKAEDTAVYYCARTRVASKGYDYWGQGTQVTVSS” here?
A: The value was “high polyreactivity”.

Q: Which “polyreactivity (PSR sort gate)” value does the source give for “QVQLVESGGGLFQAGGSLRLSCAASGSIFGDYAMGWYRQAPGKERELVAAITSSGGITYYADSVKGRFTISRDNAKNTVYLQMNSLKPEDTAVYYCAAYGYGSNYRYTCYYYWGQGTQVTVSS” here?
A: Its value is “low polyreactivity”.

Q: With “QVQLVESGGGLFQAGGSLRLSCAASGSIFRVYGMGWYRQAPGKERDLVAAITWSGGSTYYADSVKGRFTISRDNAKNTLYVQINSLKPDATAVYYCAARARPRYYRPPYDYWGQGTQVTVSS” as the sequence, how does the “polyreactivity (PSR sort gate)” value read?
A: Its value is “high polyreactivity”.

Q: Which “polyreactivity (PSR sort gate)” value does the source give for “QVQLVESGGGLFQAGGSLRLSCAASGSIFYINAMGWYRQAPGKERELVAAISQSDGSTYYADSVKGRFTISSDNAKNTVYLQLNSLKPEDTAVYYCAADAYVLFYGDWYEFDYWGQGTQVTVSS” here?
A: The value was “high polyreactivity”.

Q: With “QVQLVESGGGLFQAGGSLRLSCAASGSIYRKYAMGWYRQAPGKERELVATISWNGGRTHYADSVKGRFTISRDNAKNTVYLQMKSLKPEDTAVYYCAAHTRTSGHNYWGQGTQVTVSS” as the sequence, how does the “polyreactivity (PSR sort gate)” value read?
A: Its value is “low polyreactivity”.

Q: With “QVQLVESGGGLFQAGGSLRLSCAASGSTFAFYDMGWYRQATGIERELVAIIDWSGGRTYYADSVKGRFTISRDNAKHTVYLQMNSLKPQDTAVYYCAVDYEYVGGDYWGQGTQVTVSS” as the sequence, how does the “polyreactivity (PSR sort gate)” value read?
A: Its value is “low polyreactivity”.

Q: With “QVQLVESGGGLFQAGGSLRLSCAASGSTFESNAMGWYRQAPGKERELVAAISSSGGSTYYADSVKGRFTISRDNAKNTVYLQMNSLKPEVTAVYYCNKGGLSYYDYWGQVTQVTVSS” as the sequence, how does the “polyreactivity (PSR sort gate)” value read?
A: Its value is “high polyreactivity”.

Q: With “QVQLVESGGGLFQAGGSLRLSCAASGSTFQYNAMGWYRQAPGKERELVARITSGGRTDYADSVKGRFTITRDNAKNTVYLQMNSLKPEDTAVYYCAARYGYRGSTKYLSKPFYYWGQGTQVNVSS” as the sequence, how does the “polyreactivity (PSR sort gate)” value read?
A: Its value is “high polyreactivity”.

Q: With “QVQLVESGGGLFQAGGSLRLSCAASGSTFTTNAMGWYRQAPGKERELVAAITKRGGTTSYADSVKGRFTISRDNAKNSVYLLMNSLKPADTAVYYCAADVEVSWAYDAWWYGGGYYWGQCTQVTVSS” as the sequence, how does the “polyreactivity (PSR sort gate)” value read?
A: The value was “high polyreactivity”.

From the nanobody polyreactivity screen of Harvey et al. (2022)
